From patent US10925971B2, “Methods of treating PRLR positive breast cancer” (Regeneron Pharmaceuticals, Inc., priority 2016, dated 2021)

Legend:
PC3 cells = assay: In vitro cell viability (cell kill) assay, CCK8; type: cell-based, human; conditions: Table 11, 3 days
Text: (§1) PRLR-overexpressing cells, including HEK293, PC3, MCF7 and NCI-N87, were generated to assess the ability of anti-PRLR conjugated antibodies to reduce cell viability. For comparative purposes, PC3 and T47D cells with overexpressed ErbB2 were also generated, as well as an MCF7 cell line over-expressing both hPRLR and hErbB2. Briefly, Lipofectamine® 2000-mediated transfection methodology was utilized to generate HEK293 cells expressing human PRLR (HEK293/hPRLR) or human ErbB2 (HEK293/hErbB2). Lipofectamine LTX with Plus Reagent was used to generate PC3 cells expressing human PRLR (PC3/hPRLR) or human ErbB2 (PC3/hErbB2). Lentiviral-mediated transduction was utilized to generate MCF7 cells expressing human PRLR (MCF7/hPRLR), NCI-N87 cells expressing human PRLR (NCI-N87/hPRLR), T47D cells over-expressing human ErbB2 (T47D/hErbB2), and MCF7 cells expressing both human PRLR and human ErbB2 (MCF7/hPRLR/hErbB2). All lines were selected for at least two weeks in complete growth media plus appropriate selection reagents. Stably expressing populations were enriched for PRLR expression via FACS using the anti PRLR antibody Control I.
(§2) Next, the ability of anti-PRLR-DM1 antibody-drug conjugates (i.e., anti-PRLR antibodies conjugated to DM1 via a non-cleavable linker [SMCC]) to reduce cell viability was determined using in vitro cell based assays. Cells were seeded in PDL-coated 96 well plates at 1500 to 10000 cells per well in complete growth media and allowed to grow overnight. For cell viability curves, ADCs or free DM1 (as the methyl disulfide derivative DM1-SMe) were added to the cells at final concentrations ranging from 500 nM to 5 pM and incubated for 3 days. The 293, PC3 and T47D cells were incubated with CCK8 (Dojindo, Rockville, Md.) for the final 1-3 hours and the absorbance at 450 nm (OD450) was determined on a Flexstation3 (Molecular Devices, Sunnyvale, Calif.). MCF7 cells were treated with Hoechst 33342 nuclear stain while being fixed with 4% formaldehyde. Images were acquired on the ImageXpress micro XL (Molecular Devices, Sunnyvale, Calif.) and nuclear counts were determined via Columbus image analysis software (Perkin Elmer, Shelton, Conn.). Background OD450 values (PC3, 293, and T47D) or nuclear counts (MCF7) from digitonin (40 nM) treated cells was subtracted from all wells and viability was expressed as a percentage of the untreated controls. IC50 values were determined from a four-parameter logistic equation over a 10-point response curve (GraphPad Prism).

HEK293 (293) cells = assay: In vitro cell viability (cell kill) assay, CCK8; type: cell-based, human; conditions: 293; Table 11; 3 days
Text: as §1, §2

[1] = target: T1, native PRLR expressing T47D cells (Homo sapiens, UniProt P16471); assay: FACS cell surface binding
T1 construct: a native PRLR expressing cell line (T47D); endogenous in cells; host or cells: T47D
T1 sequence (P16471 25-622): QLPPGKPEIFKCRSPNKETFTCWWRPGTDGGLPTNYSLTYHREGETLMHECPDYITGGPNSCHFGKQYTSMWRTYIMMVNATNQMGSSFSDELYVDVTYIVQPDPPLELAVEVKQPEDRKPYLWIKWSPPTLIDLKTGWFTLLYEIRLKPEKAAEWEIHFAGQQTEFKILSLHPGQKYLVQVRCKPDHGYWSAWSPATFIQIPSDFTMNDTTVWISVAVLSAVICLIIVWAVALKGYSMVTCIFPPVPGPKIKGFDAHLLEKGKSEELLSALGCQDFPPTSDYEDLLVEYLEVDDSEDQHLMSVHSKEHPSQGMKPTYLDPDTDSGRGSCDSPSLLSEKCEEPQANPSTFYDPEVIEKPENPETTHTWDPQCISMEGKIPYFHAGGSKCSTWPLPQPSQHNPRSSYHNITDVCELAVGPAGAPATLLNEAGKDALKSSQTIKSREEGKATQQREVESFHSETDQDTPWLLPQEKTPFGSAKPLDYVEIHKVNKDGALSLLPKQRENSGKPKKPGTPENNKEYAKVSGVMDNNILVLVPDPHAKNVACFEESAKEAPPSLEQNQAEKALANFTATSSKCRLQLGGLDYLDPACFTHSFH
Protocol: (§3) Cell surface expression of PRLR on 293/hPRLR cells was assessed via FACS analysis. Briefly, 1×10^5 cells were incubated with 10 μg/ml of Control antibody I, or an isotype control for 30 min on ice in antibody dilution buffer. Following two washes with antibody dilution buffer, cells were incubated with 10 μg/ml of PE conjugated anti-human secondary antibodies for 30 min on ice. Following two additional washes, samples were run on a Hypercyt® cytometer and analyzed in ForeCyt™ (IntelliCyt, Albuquerque, N. Mex.). The mean fluorescence intensities (MFI) were expressed as fold change above isotype control levels (background). FACS binding confirmed that Control I selectively bound to 293/hPRLR expressing cells with MFIs that were 30 fold above background (isotype ctrl) levels and less than 2 fold binding on parental cells.
(§4) Next, the anti-PRLR antibodies were tested via FACS for selective binding to the engineered overexpressing PRLR HEK293 cell lines, as well as to non-expressing HEK293 cells and a native PRLR expressing cell line (T47D).

[2] = target: T2, monomeric human PRLR (hPRLR.mmh; SEQ ID NO:401) (Homo sapiens, UniProt P16471); assay: Surface plasmon resonance (Biacore T200), antibody-capture format; type: binding; conditions: analyte hPRLR.mmh
T2 construct: soluble monomeric (hPRLR.mmh); mmh (myc-myc-hexahistidine) (C)
Protocol: (§5) Antibodies, expressed as human IgG1 Fc (i.e., “H1H” designations), were captured onto an anti-human Fc sensor surface (mAb-capture format), and soluble monomeric (hPRLR.mmh; SEQ ID NO:401, or Macaca fascicularis (mf) PRLR.mmh; SEQ ID NO:403) or dimeric (hPRLR.mFc; SEQ ID NO:402) PRLR protein was injected over the sensor surface. Measurements were conducted on a T200 Biacore instrument. Kinetic association (ka) and dissociation (kd) rate constants were determined by processing and fitting the data to a 1:1 binding model using Scrubber 2.0 curve fitting software.

[3] = target: T3, dimeric human PRLR (hPRLR.mFc; SEQ ID NO:402) (Homo sapiens, UniProt P16471); assay: as above; type: binding; conditions: analyte hPRLR.mFc
T3 construct: dimeric (hPRLR.mFc)
Protocol: as §5

[4] = system: Macaca fascicularis PRLR (mfPRLR.mmh; SEQ ID NO:403); assay: as above; type: binding; conditions: analyte mfPRLR.mmh
Protocol: as §5

[5] = target: T4, monkey PRLR on HEK293/mfPRLR cells (Macaca fascicularis, UniProt A0A2K5WXK1); assay: FACS cell surface binding
T4 construct: HA; expressed in transfected cells; host or cells: HEK293
T4 sequence (A0A2K5WXK1 25-619): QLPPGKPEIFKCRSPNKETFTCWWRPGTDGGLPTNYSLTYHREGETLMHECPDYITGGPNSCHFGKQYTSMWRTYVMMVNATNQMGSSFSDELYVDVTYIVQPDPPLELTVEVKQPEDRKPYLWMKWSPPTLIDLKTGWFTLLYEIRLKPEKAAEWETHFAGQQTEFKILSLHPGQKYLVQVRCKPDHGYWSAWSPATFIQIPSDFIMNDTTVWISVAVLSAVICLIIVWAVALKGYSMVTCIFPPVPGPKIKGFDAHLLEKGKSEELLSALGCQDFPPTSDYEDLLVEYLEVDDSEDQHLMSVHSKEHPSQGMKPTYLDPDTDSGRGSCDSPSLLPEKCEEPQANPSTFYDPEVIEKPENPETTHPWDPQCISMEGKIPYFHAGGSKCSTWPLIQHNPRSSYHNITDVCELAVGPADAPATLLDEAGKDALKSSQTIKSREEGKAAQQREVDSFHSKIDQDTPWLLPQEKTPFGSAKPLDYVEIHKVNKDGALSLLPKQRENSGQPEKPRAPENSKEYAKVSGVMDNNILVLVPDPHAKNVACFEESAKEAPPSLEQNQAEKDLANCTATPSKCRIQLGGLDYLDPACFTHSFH
Protocol: (§6) The ability of anti-PRLR antibodies to selectively bind PRLR expressing cell lines was next determined. Human, monkey Macaca fascicularis, and mouse PRLR constructs with an HA tag were stably introduced into HEK293 cells via Lipofectamine 2000-mediated transfection methodology. Transfectants (HEK293/hPRLR, HEK293/mfPRLR and HEK293/mPRLR) were selected for at least 2 weeks in complete growth media plus G418.
as §3, §4

[6] = target: T5, human PRLR on HEK293/hPRLR cells (Homo sapiens, UniProt P16471); assay: FACS cell surface binding
T5 construct: HA; expressed in transfected cells; host or cells: HEK293
T5 sequence (P16471 25-622): T1 sequence (P16471 25-622)
Protocol: as §6, §3, §4

[7] = target: T6, mouse PRLR on HEK293/mPRLR cells (Mus musculus, UniProt Q08501); assay: FACS cell surface binding
T6 construct: HA; expressed in transfected cells; host or cells: HEK293
T6 sequence (Q08501 20-608): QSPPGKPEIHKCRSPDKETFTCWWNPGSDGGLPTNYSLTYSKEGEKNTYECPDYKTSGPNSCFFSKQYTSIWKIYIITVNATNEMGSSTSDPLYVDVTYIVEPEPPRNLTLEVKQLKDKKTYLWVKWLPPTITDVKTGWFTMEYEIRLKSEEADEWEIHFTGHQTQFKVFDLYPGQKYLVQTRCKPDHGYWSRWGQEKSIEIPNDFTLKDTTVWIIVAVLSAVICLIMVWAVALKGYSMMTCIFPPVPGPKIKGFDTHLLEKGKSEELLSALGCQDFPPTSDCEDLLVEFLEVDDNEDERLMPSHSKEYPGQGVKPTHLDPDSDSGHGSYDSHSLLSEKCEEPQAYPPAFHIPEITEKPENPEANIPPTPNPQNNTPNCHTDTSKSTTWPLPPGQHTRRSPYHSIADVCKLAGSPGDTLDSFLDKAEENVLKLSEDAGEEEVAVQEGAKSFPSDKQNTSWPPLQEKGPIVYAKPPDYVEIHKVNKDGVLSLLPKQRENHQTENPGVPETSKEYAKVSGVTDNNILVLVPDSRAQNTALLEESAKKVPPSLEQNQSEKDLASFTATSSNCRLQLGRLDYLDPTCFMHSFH
Protocol: as §6, §3, §4

HEK293 parental cells = assay: FACS cell surface binding; set-up: species or system human
Protocol: as §6, §3, §4

T2 sequence (P16471 with tags, fused parts or gaps): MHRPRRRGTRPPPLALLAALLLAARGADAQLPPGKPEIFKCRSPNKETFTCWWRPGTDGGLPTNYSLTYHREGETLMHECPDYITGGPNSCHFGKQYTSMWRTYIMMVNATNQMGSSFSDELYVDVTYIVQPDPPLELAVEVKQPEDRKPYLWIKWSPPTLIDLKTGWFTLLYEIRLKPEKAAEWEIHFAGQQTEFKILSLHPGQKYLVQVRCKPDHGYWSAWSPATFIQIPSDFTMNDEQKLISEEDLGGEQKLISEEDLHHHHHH
Macaca fascicularis PRLR (mfPRLR.mmh; SEQ ID NO:403), sequence (as listed by the source): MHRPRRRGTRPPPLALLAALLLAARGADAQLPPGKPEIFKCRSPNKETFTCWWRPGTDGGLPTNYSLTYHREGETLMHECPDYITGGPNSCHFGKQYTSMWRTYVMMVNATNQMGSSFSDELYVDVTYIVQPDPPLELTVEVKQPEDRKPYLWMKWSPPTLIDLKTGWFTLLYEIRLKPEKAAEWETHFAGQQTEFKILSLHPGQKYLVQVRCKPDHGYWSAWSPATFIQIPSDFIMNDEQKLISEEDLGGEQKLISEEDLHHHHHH
T3 sequence (P16471 with tags, fused parts or gaps): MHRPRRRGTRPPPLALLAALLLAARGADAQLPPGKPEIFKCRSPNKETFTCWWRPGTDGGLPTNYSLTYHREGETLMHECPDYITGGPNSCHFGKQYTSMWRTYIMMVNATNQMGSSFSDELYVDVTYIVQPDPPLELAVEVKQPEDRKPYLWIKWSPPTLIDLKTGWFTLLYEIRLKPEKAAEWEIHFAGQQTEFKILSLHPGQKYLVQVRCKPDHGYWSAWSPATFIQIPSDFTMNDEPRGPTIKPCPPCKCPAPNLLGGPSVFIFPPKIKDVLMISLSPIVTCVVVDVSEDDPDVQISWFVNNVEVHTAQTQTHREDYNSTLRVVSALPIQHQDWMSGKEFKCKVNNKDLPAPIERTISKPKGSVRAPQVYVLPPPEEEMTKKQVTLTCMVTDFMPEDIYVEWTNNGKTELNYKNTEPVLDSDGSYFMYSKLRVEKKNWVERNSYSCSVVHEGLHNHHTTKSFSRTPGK

B1: H1H6762P-DM1 (conjugate)
VH: QVQLVESGGGVVQPGRSLRLSCAASGFTFSHYGMVWVRQPPGKGLEWVALISFDGTTKYYADSVKGRFTISRDNSKNTLYLQMNSLRAEDTAVYFCVGAIAAAAFDLWGRGTLVTVSS
VL: EIVMTQSPATLSVSPGERATLSCRASQSVSSDLAWYQQKPGQAPRLLIYSASARATGIPARFTGSGSGTDFTLTISSLQSEDFAVYYCQQYNNWPMYTFGQGTKLEIK
% Kill (PC3 cells): 78%
IC50 (PC3 cells): 250 nM
% Kill (HEK293 (293) cells): 89%

B2: H1H6803P-DM1 (conjugate)
VH: EVQLVESGGGVVRPGGSLRLSCAASGFKFDDYGMTWVRHVPGKGLEWVSGINWNGGRTGYTDSVKGRFTISRDNAKNSLYLQMNSLRAEDTALYHCAGARRDAFDIWGQGTMVTVSS
VL: DIQMTQSPSSLSASIGDRVTITCRASQNIIKYLNWYQQNAGKAPKLLIYTASSLQSGVPSRFSGSGSGTDFTLTISSLQPEDFATYYCQQSSSSPYTFGQGTKLEIK
% Kill (PC3 cells): 72%
% Kill (HEK293 (293) cells): 7%

B3: H1H6793P-DM1 (conjugate)
VH: EVQLVESGGGLVQPGGSLRLSCAASGFSFSIYAMSWFRQAPGKGLEWVSAINGRGDGTHYADSVKGRFTISRDNSKTTLYLQMSSLRAEDTAVYYCAKPVMSTNGFDIWGQGTMVTVSS
VL: DIQMTQSPSTLSASVGDRVTITCRASQSISSWLAWYQLKPGKAPKLLIYKASNLESGVPSRFSGSGSGTEFTLTISSLQPDDFATYYCQQYNIYWTFGQGTKVEIK
% Kill (PC3 cells): 72%
IC50 (PC3 cells): 200 nM
% Kill (HEK293 (293) cells): 84%
IC50 (HEK293 (293) cells): 100 nM

B4: H1H6959N2: anti-PRLR antibody, human IgG1 Fc form of H2M6959N2 of Table 1; HCVR/LCVR SEQ ID NOs 306/314 (antibody, V domains shown)
VH: EVQLVESGGGLVQPGRSLRLSCAASGFTFDDYAMHWVRQAPGKGLEWVSGISWHSGIIGYADSVKGRFTISRDNAKNSLYLQMNSLRTEDAALYYCAKIGSYFYFDSWGQGTLVTVSS
VL: EIVLTQSPGTLSLSPGERATLSCRASQSVSSNYLAWYQQKPGQAPRLLIYGASSRATGIPDRFSGSGSGTDFTLTISRLEPEDFAVYYCQQFGSSGYTFGQGTNLEIK
FACS Cell Binding [1]: 9 Fold Above Background
ka ([2]; 25° C.): 179000 M/s
kd ([2]; 25° C.): 0.036 s⁻¹
ka ([2]; 37° C.): 40600 M/s
kd ([2]; 37° C.): 0.0277 s⁻¹
ka ([3]; 25° C.): 359000 M/s
kd ([3]; 25° C.): 0.000518 s⁻¹
ka ([3]; 37° C.): 509000 M/s
kd ([3]; 37° C.): 0.0023 s⁻¹
ka ([4]; 25° C.): 129000 M/s
kd ([4]; 25° C.): 0.0167 s⁻¹
ka ([4]; 37° C.): 44600 M/s
kd ([4]; 37° C.): 0.0165 s⁻¹
FACS Cell Binding [5]: 11 Fold Above Background
FACS Cell Binding [6]: 6 Fold Above Background
FACS Cell Binding [7]: 2 Fold Above Background
FACS Cell Binding (HEK293 parental cells): 1 Fold Above Background

B5: H1H6959N2-DM1 (conjugate)
VH: B4 VH
VL: B4 VL
% Kill (PC3 cells): 79%
IC50 (PC3 cells): 150 nM
IC50 (HEK293 (293) cells): 75 nM
